Source: paper PMC5736413 (Journal of immunology (Baltimore, Md. : 1950), 2017)

Molecular target: recombinant mouse Factor H (mouse, UniProt P06909 19-1234)
Test: SPR

recombinant mouse Factor H, sequence (P06909 19-1234): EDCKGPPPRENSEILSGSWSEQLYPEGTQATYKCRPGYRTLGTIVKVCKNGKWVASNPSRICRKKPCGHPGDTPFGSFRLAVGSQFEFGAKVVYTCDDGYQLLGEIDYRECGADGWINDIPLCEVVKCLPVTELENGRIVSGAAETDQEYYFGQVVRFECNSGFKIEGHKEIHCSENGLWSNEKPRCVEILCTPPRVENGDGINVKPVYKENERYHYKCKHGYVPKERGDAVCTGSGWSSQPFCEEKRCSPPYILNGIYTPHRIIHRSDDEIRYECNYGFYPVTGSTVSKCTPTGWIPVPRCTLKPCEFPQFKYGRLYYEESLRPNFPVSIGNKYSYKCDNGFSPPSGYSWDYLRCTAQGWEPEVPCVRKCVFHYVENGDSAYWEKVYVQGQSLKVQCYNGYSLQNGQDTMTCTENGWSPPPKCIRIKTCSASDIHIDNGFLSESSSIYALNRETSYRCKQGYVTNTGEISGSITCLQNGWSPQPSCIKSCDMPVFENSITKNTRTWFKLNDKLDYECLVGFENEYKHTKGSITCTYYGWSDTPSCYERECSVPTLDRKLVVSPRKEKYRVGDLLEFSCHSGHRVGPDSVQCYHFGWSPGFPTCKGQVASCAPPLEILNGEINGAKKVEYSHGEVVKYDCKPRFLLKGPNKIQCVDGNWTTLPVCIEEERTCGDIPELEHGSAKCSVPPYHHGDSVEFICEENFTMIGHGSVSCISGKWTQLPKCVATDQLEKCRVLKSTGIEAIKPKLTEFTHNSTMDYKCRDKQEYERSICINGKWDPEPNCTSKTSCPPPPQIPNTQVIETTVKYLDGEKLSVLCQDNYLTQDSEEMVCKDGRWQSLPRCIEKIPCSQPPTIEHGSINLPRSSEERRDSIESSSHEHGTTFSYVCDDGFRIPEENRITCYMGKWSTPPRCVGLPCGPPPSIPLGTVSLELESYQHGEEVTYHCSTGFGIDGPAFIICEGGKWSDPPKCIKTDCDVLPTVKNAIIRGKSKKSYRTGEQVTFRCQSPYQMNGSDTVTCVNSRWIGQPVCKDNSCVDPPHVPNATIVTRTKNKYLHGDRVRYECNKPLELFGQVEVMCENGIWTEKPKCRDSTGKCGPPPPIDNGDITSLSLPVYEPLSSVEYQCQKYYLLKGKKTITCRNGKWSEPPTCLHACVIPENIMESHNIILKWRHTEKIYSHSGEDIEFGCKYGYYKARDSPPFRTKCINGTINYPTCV

Kd: 3.85 µM
B1: recombinant mouse C3d (C1010A) (domain or fragment)
chain: not shown
